In patent publication CN116143909A:

Assays:
[1] = target: HIV-1 P24抗原(购自菲鹏) (HIV-1) (UniProt P04591); assay: indirect ELISA, P24 coated at 1 ug/ml, antibody at 125 ng/ml, goat anti-human IgG-HRP
[2] = target: HIV-1 P24抗原(购自菲鹏) (HIV-1) (UniProt P04591); assay: indirect ELISA, P24 coated at 1 ug/ml, antibody at 250 ng/ml, goat anti-human IgG-HRP
[3] = target: HIV-1 P24抗原(购自菲鹏) (HIV-1) (UniProt P04591); assay: indirect ELISA, P24 coated at 1 ug/ml, antibody at 62.5 ng/ml, goat anti-human IgG-HRP
[4] = target: HIV-1 P24抗原(购自菲鹏) (HIV-1) (UniProt P04591); assay: indirect ELISA, P24 coated at 1 ug/ml, antibody at 31.25 ng/ml, goat anti-human IgG-HRP
[5] = target: HIV-1 P24抗原(购自菲鹏) (HIV-1) (UniProt P04591); assay: indirect ELISA, P24 coated at 1 ug/ml, antibody at 15.625 ng/ml, goat anti-human IgG-HRP
[6] = target: HIV-1 P24抗原(购自菲鹏) (HIV-1) (UniProt P04591); assay: indirect ELISA, P24 coated at 3 ug/ml, supernatant of transiently transfected CHO cells diluted 1000-fold, goat anti-human IgG-HRP

对照抗体 (antibody)
OD450 (ref 630 nm) [1]: 1.28 OD | OD450 (ref 630 nm) [2]: 1.57 OD | OD450 (ref 630 nm) [3]: 0.756 OD | OD450 (ref 630 nm) [4]: 0.537 OD | OD450 (ref 630 nm) [5]: 0.337 OD

B1: 6F13RMb1 (antibody, human IgG1, kappa, V domains shown)
VH: QVQLVQSGAEVKKPGSSVKVSCKASGGTFSSYAISWVRQAPGQGLEWMGGSIPIFGTTHYAQKFQGRVAIIVDESTSTSYMELSSLRSDDTAAYYCARAATAIFGVPRNNFYAMEVWGQGTTVTVSS
VL: DIVMTQSPLSLSVTPGEPASISCRSSQSILHSNGYNYLDWYLQRPGQSPKLLIYIGSTRASGVPDRFSGSGSGTDFTLKISRVEAEDVGVYYCMQAVQTFFGPGTKVDLKR
OD450 (ref 630 nm) [1]: 1.42 OD | OD450 (ref 630 nm) [2]: 1.52 OD | OD450 (ref 630 nm) [3]: 1.03 OD | OD450 (ref 630 nm) [4]: 0.673 OD | OD450 (ref 630 nm) [5]: 0.455 OD | OD450 (ref 630 nm) [6]: > 1 OD
